According to patent publication US20110195090A1:
pEC50: −log10 of the molar value.

Key:
[1] = biological target: Bal gp120 (HIV-1 isolate Bal); assay: ELISA, bal gp120 coated, scFv-Fc
[2] = biological target: Bal gp120 (HIV-1 isolate Bal); assay: ELISA, bal gp120 coated, scFv

Row | Substance | pEC50 [1] | pEC50 [2]
1 | b12 A52P/G53Y scFv-Fc (Fc fusion) | 7.53 | 
2 | b12 G53Y scFv-Fc (Fc fusion) | < 6.00 | 
3 | mature b12 scFv-Fc (Fc fusion) | 9.40 | 
4 | mature scFv b12 |  | 8.89
5 | scFv b12 germline mutant A52P/G53Y |  | 7.06
6 | scFv b12 germline mutant G53Y |  | < 6.00
